Publication PMC13544220, “Glycemic and bodyweight effects of GIPR coding variation reflect differences in surface expression and intrinsic functional impairment” (Science Advances, 2026)

Columns and labels:
Format in all cases: cell-based, human
[1] = test system: wild-type and variant SNAP-GIPR; assay: Surface SNAP-GIPR expression (SNAP-tag labelling) in AD293 cells; conditions: for AD293 Surface: Fig S3E, mean; for Surface SNAP-GIPR expression: sheet Fig 1C;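 on all read-outs here: scaled to the experimental average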
Procedure: (§1) Twenty-four hours before the experiment, AD293 or INS-1 cells were reverse transfected with GIPR variant or wild-type plasmids using Lipofectamine 2000 in 96-well, clear-bottom, black microplates precoated with poly-D-lysine. All variants were tested in parallel on each occasion to control for transfection efficiency differences between experiments. Cells were then labeled using the cell-impermeant probe SNAP-Surface Alexa Fluor 647 (500 nM, New England Biolabs, USA) for 10 min at room temperature to label only surface GIPR. […] Several fields of view (FOVs) were acquired within each well using a 20X, 0.75–numerical aperture (NA) air objective. Surface GIPR fluorescence was quantified after flat-field correction using BaSiC ([72]) and segmenting using Phantast ([73]), which generates a mask based on the phase contrast images to demarcate cell versus noncell. Wide-field imaging of the surface-specific labeling achieved by SNAP-Surface probes means that surface expression can be established from whole-cell fluorescence, after subtracting nonspecific fluorescence from a separate well containing nontransfected cells processed in parallel from the same experiment. Data were normalized by dividing by the average specific signal across each experiment, or by the wild-type value, as indicated in the figure legends.

[2] = test system: wild-type and variant SNAP-GIPR; assay: Surface SNAP-GIPR expression (SNAP-tag labelling) in INS-1 cells; conditions: Fig 4G; Mean
Procedure: as §1

[3] = test system: wild-type and variant SNAP-GIPR; assay: Single-concentration GIP cAMP response by HTRF in AD293 cells; conditions: Fig S3F, HTRF, mean;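 further: ratio to experiment-wide average response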
Procedure: (§2) All variants were tested in parallel on each occasion to control for transfection efficiency differences between experiments.

[4] = test system: wild-type and variant SNAP-GIPR; assay: Single-concentration GIP cAMP response by HTRF in INS-1 cells; conditions: Fig S3E, mean
Procedure: as §2

[5] = test system: wild-type and variant SNAP-GIPR; assay: cADDis cAMP imaging in AD293 cells, ensemble, expression-matched and per decile; conditions: Fig S3F, cADDis, mean
Procedure: AD293 cells were reverse transfected with the GIPR variant or wild-type plasmids using Lipofectamine 2000 and cotransduced with the cADDis Green Up BacMam (10 μl per well, Montana Molecular, USA), in 96-well, poly-D-lysine–coated microplates. All variants were tested in parallel on each occasion to control for transfection efficiency differences between experiments. After 24 hours, cells were labeled using 500 nM SNAP-Surface Alexa Fluor 647 for 10 min at room temperature. Cells were washed three times and then imaged in KRBH buffer containing 6 mM glucose and 0.1% BSA. Imaging was performed at 37°C by wide-field microscopy using the same microscope as in the “Assessment of surface GIPR expression by SNAP-tag labeling in cell lines” section, with 9 FOVs for both cADDis and SNAP-Surface fluorescence acquired from each well using a 10X, 0.45 NA air objective. […] Flat-field correction was performed using BaSiC ([72]), drift correction was performed using SIFT, and a maximum intensity projection of the cADDis channel was used to segment individual cells. cAMP responses were determined by quantifying the cADDis fluorescence intensity for each cell at each time point. Nonviable cells or noncell objects were excluded according to criteria for allowable cell IBMX/FSK responses. […] The cADDis mask was then used to quantify the SNAP-Surface signal from each cell. Wild-type SNAP-Surface readings were split into deciles, and these deciles were subsequently used to categorize variant-transfected cells to match against the wild type. After trimming the top and bottom deciles, the mean was taken of each decile mean for surface expression level or cAMP response, which achieved matched expression levels by effectively applying an inverse weighting to counteract differences in cell number in each decile for different variants. Ensemble expression levels or cAMP responses were calculated without regard to deciles. Variant cADDis responses were also analyzed within their own surface expression deciles.

[6] = test system: wild-type and variant SNAP-GIPR; assay: Constitutive and agonist-mediated internalization, reversible SNAP-tag labelling, AD293 cells; set-up: key to Internalisation, Vehicle / Internalisation, +GIP / Internalisation, GIP-only: % internalization: residual fluorescence after Mesna vs pre-Mesna; Surface expression: unit not given here; conditions: Mean
Procedure: (§3) Twenty-four hours before the experiment, AD293 or INS-1 cells were reverse transfected with GIPR variant or wild-type plasmids using Lipofectamine 2000 in 96-well, clear-bottom, black microplates precoated with poly-D-lysine. All variants were tested in parallel on each occasion to control for transfection efficiency differences between experiments. […] Media were then removed, cells washed with PBS and then placed in TNE buffer (pH 8.6) for imaging. […] After 10 min, the well was reimaged again to detect remaining fluorescence from internalized GIPR. Images were analyzed as in the “Assessment of surface GIPR expression by SNAP-tag labeling in cell lines” section, with the residual specific fluorescence after Mesna treatment expressed relative to the pre-Mesna value to establish percentage internalization.

[7] = test system: wild-type and variant SNAP-GIPR; assay: Constitutive and agonist-mediated internalization, reversible SNAP-tag labelling, INS-1 cells; set-up: key to Internalisation, GIP-only / Internalisation, Vehicle / Internalisation, +GIP: % internalization: residual fluorescence after Mesna vs pre-Mesna; conditions: Mean
Procedure: as §3

B1: A268V (protein, UniProt P48546 22-466, looked up, variant A268V)
Gastric inhibitory …: RAETGSKGQTAGELYQRWERYRRECQETLAAAEPPSGLACNGSFDMYVCWDYAAPNATARASCPWYLPWHHHVAAGFVLRQCGSDGQWGLWRDHTQCENPEKNEAFLDQRLILERLQVMYTVGYSLSLATLLLALLILSLFRRLHCTRNYIHINLFTSFMLRAAAILSRDRLLPRPGPYLGDQALALWNQALAACRTAQIVTQYCVGANYTWLLVEGVYLHSLLVLVGGSEEGHFRYYLLLGWGAPVLFVIPWVIVRYLYENTQCWERNEVKAIWWIIRTPILMTILINFLIFIRILGILLSKLRTRQMRCRDYRLRLARSTLTLVPLLGVHEVVFAPVTEEQARGALRFAKLGFEIFLSSFQGFLVSVLYCFINKEVQSEIRRGWHHCRLRRSLGEEQRQLPERAFRALPSGSGPGEVPTSRGLSSGTLPGPGNEASRELESYC
AD293 Surface ([1]; column repeated, paired with cAMP 100 nM): 1.382 | AD293 Surface ([1]; paired with cAMP 100 pM): 1.382 | Surface SNAP-GIPR expression ([1]; replicate 1): 1.352 | Surface SNAP-GIPR expression ([1]; replicate 2): 1.469 | Surface SNAP-GIPR expression ([1]; replicate 3): 1.684 | Surface SNAP-GIPR expression ([1]; replicate 4): 1.15 | Surface SNAP-GIPR expression ([1]; replicate 5): 1.545 | Surface SNAP-GIPR expression ([1]; replicate 6): 1.48 | Surface SNAP-GIPR expression ([1]; replicate 7): 1.735 | Surface SNAP-GIPR expression ([1]; replicate 8): 0.9896 | Surface SNAP-GIPR expression ([1]; replicate 9): 1.756 | Surface SNAP-GIPR expression ([1]; replicate 10): 1.344 | Surface SNAP-GIPR expression ([1]; replicate 11): 1.392 | Surface SNAP-GIPR expression ([1]; replicate 12): 1.329 | Surface SNAP-GIPR expression ([1]; replicate 13): 1.75 | Surface SNAP-GIPR expression ([1]; replicate 14): 1.057 | Surface SNAP-GIPR expression ([1]; replicate 15): 1.196 | Surface SNAP-GIPR expression ([1]; replicate 16): 1.17 | Surface SNAP-GIPR expression ([1]; replicate 17): 1.366 | Surface SNAP-GIPR expression ([1]; replicate 18): 1.286 | Surface SNAP-GIPR expression ([1]; replicate 19): 1.239 | Surface SNAP-GIPR expression ([1]; replicate 20): 1.203 | Surface SNAP-GIPR expression ([1]; replicate 21): 1.125 | Surface SNAP-GIPR expression ([1]; replicate 22): 1.189 | Surface SNAP-GIPR expression ([1]; replicate 23): 1.374 | Surface SNAP-GIPR expression ([1]; replicate 24): 1.314 | Surface SNAP-GIPR expression ([1]; replicate 25): 1.303 | Surface SNAP-GIPR expression ([1]; replicate 26): 1.296 | Surface SNAP-GIPR expression ([1]; replicate 27): 1.545 | Surface SNAP-GIPR expression ([1]; replicate 28): 1.175 | Surface SNAP-GIPR expression ([1]; replicate 29): 1.642 | Surface SNAP-GIPR expression ([1]; replicate 30): 1.674 | Surface SNAP-GIPR expression ([1]; replicate 31): 1.459 | Surface SNAP-GIPR expression ([1]; replicate 32): 1.555 | Surface SNAP-GIPR expression ([1]; replicate 33): 1.663 | Surface SNAP-GIPR expression ([1]; replicate 34): 1.328 | Surface SNAP-GIPR expression ([1]; replicate 35): 1.277 | Surface SNAP-GIPR expression ([1]; replicate 36): 1.382 | Surface SNAP-GIPR expression ([1]; replicate 37): 1.6 | Surface SNAP-GIPR expression ([1]; replicate 38): 1.461 | Surface SNAP-GIPR expression ([1]; replicate 39): 1.123 | Surface SNAP-GIPR expression ([1]; replicate 40): 1.335 | Surface SNAP-GIPR expression ([1]; replicate 41): 1.367 | Surface expression [2]: 1.2654 | AD293 100 pM HTRF ([3]; AD293, 100 pM): 2.332 | AD293 100 nM HTRF ([3]; AD293, 100 nM): 1.283 | INS-1 cAMP (100 nM) [4]: 1.343 | AD293 100 pM cADDis ([5]; AD293, 100 pM): 34.2441 | AD293 100 nM cADDis ([5]; AD293, 100 nM): 37.42 | +GIP internalisation (100 nM) ([6]; Fig 4E, GIP 100 nM): 0.7963 | GIP-specific internalisation (100 nM) ([6]; Fig 4E, GIP 100 nM): 0.2682 | Constitutive internalisation (100 nM) ([6]; Fig 4E): 0.5281 | Surface expression ([6]; Fig 4E): 1.472 | Internalisation, +GIP ([6]; Fig S4C, AD293): 57.341 | Internalisation, GIP-only ([6]; Fig S4C, AD293): 19.4051 | Internalisation, Vehicle ([6]; Fig S4C, AD293): 37.9359 | +GIP internalisation (100 nM) ([7]; Fig 4G, GIP 100 nM): 0.6195 | GIP-specific internalisation (100 nM) ([7]; Fig 4G, GIP 100 nM): 0.1687 | Constitutive internalisation (100 nM) ([7]; Fig 4G): 0.4508 | Internalisation, +GIP ([7]; Fig S4C, INS-1): 51.1233 | Internalisation, GIP-only ([7]; Fig S4C, INS-1): 13.9983 | Internalisation, Vehicle ([7]; Fig S4C, INS-1): 37.125
